In this assay the target is full-length Cbln1 (Cbln1FL) (human) (UniProt P23435). Nature of the assay: ITC.
Sequence of full-length Cbln1 (Cbln1FL) (human) (P23435 22-193): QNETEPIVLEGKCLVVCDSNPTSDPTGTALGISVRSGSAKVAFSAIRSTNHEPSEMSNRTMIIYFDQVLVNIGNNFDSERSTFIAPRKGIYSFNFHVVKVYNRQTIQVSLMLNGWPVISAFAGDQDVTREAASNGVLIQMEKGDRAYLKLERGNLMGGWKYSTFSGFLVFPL

In the case of “β-neurexin-1 with spliced sequence #4 (β-NRX1(+4)) (domain or fragment)”, the dissociation constant (Kd) (as a rule, the equilibrium constant for the complex coming apart) worked out at 43.5 nM and the stoichiometry N (β-NRX1(+4) per Cbln1 hexamer) is 1.

The record behind these values is publication PMC5291321.
